Values quoted from earlier work, collected in PMC4705221.
Like-named read-outs stand apart in the source and are kept apart here.

How the values were obtained:
[1] = target: MK2 (Homo sapiens) (UniProt P49137)
[2] = target: MK2 (Homo sapiens) (UniProt P49137); remark: listed apart in the source

Chain of UniProt P49137 (P49137 whole entry): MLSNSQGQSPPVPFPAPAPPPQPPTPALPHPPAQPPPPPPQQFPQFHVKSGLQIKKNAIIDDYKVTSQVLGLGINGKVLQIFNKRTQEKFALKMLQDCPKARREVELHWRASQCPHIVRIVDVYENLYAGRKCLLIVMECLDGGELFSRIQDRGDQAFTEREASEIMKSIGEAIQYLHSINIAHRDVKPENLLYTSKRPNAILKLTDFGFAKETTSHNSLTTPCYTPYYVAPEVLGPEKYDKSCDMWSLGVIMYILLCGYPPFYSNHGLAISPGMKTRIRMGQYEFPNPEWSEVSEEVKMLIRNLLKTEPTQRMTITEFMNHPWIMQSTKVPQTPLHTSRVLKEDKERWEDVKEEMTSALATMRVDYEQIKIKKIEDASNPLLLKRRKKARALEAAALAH

Kd [1]: 60 nM
Kd [2]: 2.5 nM
Substance: p38α (from UniProt Q16539)
